The values that follow come from PMC5438564.

Assay [1] addresses Fyn (UniProt P39688). As to the kind of experiment: proximity ligation assay (PLA), Fyn3 + Tau1 antibodies (tau unphosphorylated at S198/S199/S202). The following applies: transfected Mapt-/- neurons; n = 16-31 neurons per construct from two experiments; parent: est. 1.0; read off a plot.
Assay [2] concerns the target Fyn (UniProt P39688). As to the kind of experiment: proximity ligation assay (PLA), Fyn3 + Tau5 antibodies (total tau). The note with it: transfected Mapt-/- neurons; n = 16-31 neurons per construct from two experiments; parent: est. 1.0; read off a plot.

For the substance “wildtype 0N4R mouse tau (mTau^WT) P216A; P219A”, the ratio to parent in the assay with Fyn [1] amounted to 1.1; in the assay with Fyn [2], 0.41.

On to “wildtype 0N4R mouse tau (mTau^WT) P233A; P236A”, for which the ratio to parent with Fyn [1] and with Fyn [2] was 0.2 each time.

With wildtype 0N4R mouse tau (mTau^WT) Y18F, the ratio to parent was 1.7 with Fyn [1] and 0.3 with Fyn [2].
